Test results reported in the supplement of paper PMC10057847, “Precision engineering of biological function with large-scale measurements and machine learning” (PLOS ONE, 2023).
± gives the uncertainty stated by the source.

B1: library; the commonest letter at each place (parent)
chain: MKPVTLYDVAEYAGVSYQTVSRVVNQASHVSAKTREKVEAAMAELNYIPNRVAQQLAGKQSLLIGVATSSLALHAPSQIVAAIKSRADQLGASVVVSMVERSGVEACKAAVHNLLAQRVSGLIINYPLDDQDAIAVEAACTNVPALFLDVSDQTPINSIIFSHEDGTRLGVEHLVALGHQQIALLAGPLSSVSARLRLAGWHKYLTRNQIQPIAEREGDWSAMSGFQQTMQMLNEGIVPTAMLVANDQMALGAMRAITESGLRVGADISVVGYDDTEDSSCYIPPLTTIKQDFRLLGQTSVDRLLQLSQGQAVKGNQLLPVSLVKRKTTLAPNTQTASPRALADSLMQLARQVSRLESGQ

Columns and labels:
Settings in all cases: with IPTG
IPTG [1] = variants of: B1
Experimental: (§1)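 LacI variants on the pVER plasmid regulate eYFP behind lacO in E. coli MG1655Δlac, grown in rich M9 at 37 °C with a 2-fold IPTG dilution series. After two 160-min growth steps, YFP is read by flow cytometry and calibrated to MEF. Bayesian MCMC fits of the Hill equation give G0, G∞, EC50 and n (posterior mean ± SD).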

IPTG [2] = variants of: B1; test: Hill coefficient n (dimensionless); higher = steeper dose response
Experimental: as §1

IPTG [3] = variants of: B1; test: basal output G0 (YFP, no IPTG) (log10 MEF); higher = higher reporter expression without inducer
Experimental: as §1

IPTG [4] = variants of: B1; test: saturating output G-infinity (YFP) (log10 MEF); higher = higher reporter expression at saturating IPTG
Experimental: as §1

| Variant | EC50 for IPTG (log10 µmol/L) (IPTG [1]) | Hill coefficient n (IPTG [2]) | basal output G0 (log10) (IPTG [3]) | saturating output G-infinity (log10) (IPTG [4]) |
| --- | --- | --- | --- | --- |
| MKPVTLYDIAEYAGVSYQTVSRVVNQASHVSAKTREKVEAAMAELNYIPNRVAQQLAGKQSLLIGVATSSLALHAPSQIVAAIKSRADQLGASVVVSMVERSGVEACKAAVHNLLAQRVSGLIINYPLDDQDAIAVEAACTNVPALFLDVSDQTPINSIIFSHEDGTRLGVEHLVALGHQQIALLAGPLSSVSARLRLAGWHKYLTRNQIQPIAEREGDWSAMSGFQQTMQMLNEGIVPTAMLVANDQMALGAMCAITDSGLRVGADISVVGYDDTEDSSCYIPPLTTIKQDFRLLGQTSVDRLLQLSQGQAVKGNQLLPVSLVKRKTTLAPNTQIASPRALADSLMQLARQVSQLESGQ [V9I R255C E259D T336I R355Q] | 1.05 ± 0.014 | 1.38 ± 0.044 | 3.374 ± 0.028 | 4.5116 ± 0.0042 |
| MKPVTLYDVAEYAGISYQTVSRVVNQASHVSAKTREKVEAAMAELNYIPNRVAQQLAGKQSLLIGVATSSLALHAPSQIVAAIKSRADQLGASVVVSMVERSGVEACKAAVHNLLAQRVSGLIINYPLDDQDAIAVEAACTNVPALFLDVSDQTPINSIIISHEDGTRLGVEHLVALGHQQIALLAGPLSSVSARLRLAGWHKYLTRNQIQPIAEREGDWSAMSGFQQTMQMLNEGIVPTAMLVANDQMALGAMRAITESGLRVGTDISVVGYDDTEDSSCYIPPLTTIRQDFRLLGQTSVDRLLQLSQGQAVKGNQLLPVSLVKRKTTLAPNTQTASPRALADSLIQLARQVSRLESGQ [V15I F161I A266T K290R M347I] | 2.85 ± 0.076 | 1.46 ± 0.13 | 3.111 ± 0.019 | 4.369 ± 0.043 |
| MRPVTLYDVAEYAGVSYQTVSRVVNQASHVSAKTREKVEAAMAELNYIPNRVAQQLAGKQSLLIGVATSSLALHAPSQIVAAIKSRADQLGVSVVVSMVERSGVEACKAAVHNLLAQRVSGLIINYPLDDQDAIAVEAACTNVPALFLDVSDQTPINSIIFSHEDGTRLGVEHLVALGHQQIALLAGPLSSVSAPLRLAGWHKYLTRNQIQPIAEREGDWSAMSGFQQTMQMLNEGIVPTAMLVANDQMALGAMRAITESGLRVGADISVVGYDDTEGSSCYIPPLTTIKQDFRLLGQTSVDRLLQLSQGQAVKGNQLLPVSLVKRKTTLAPNTQTASPRALADSLMQLARQVSRLESGQ [K2R A92V R195P D278G] | 2.91 ± 0.042 | 2.03 ± 0.12 | 3.086 ± 0.01 | 4.436 ± 0.04 |
| MKPVTLYDVAKYAGVSYQTVSRVVNQASHVSAKTREKVEAAMAELNYIPNRVAQQLAGKQSLLIGVPTSSLALHAPSQIVAAIKSRADQLGASVVVSMVERSGVEACKAAVHNLLAQRVSGLIINYPLDDQDAIAVEAACTNVPALFLDVSDQTPINSIISSHEDGTRLGVEHLVALGHQQIALLVGPLSSVSARLRLAGWHKYLTRNQIQPIAEREGDWSAMSGFQQTLQMLNEGIVPTAMLVANDQMALGAMRAITESGLRVGADISVVGYDDTEDSSCYIPPLTTIKQDFRLLGQTSVDRLLQLSQGQAVKGNQLLPVSLVKRKTTLAPNTQTASPRALANSLMQLARQVSRLESGQ [E11K A67P F161S A186V M230L D344N] | 0.815 ± 0.031 | 1.44 ± 0.11 | 3.548 ± 0.033 | 4.236 ± 0.006 |
| MKPVTLYDVAKYAGVSYQTVSRVVNQGSHVSAKTRENVEAAMAELNYIPNRVAQQLAGKQSLLIGVATSSLALHAPSQIVAAIKSRADQLGASVVVSMVERSGVEACKAAVLNLLAQRVSGLIINYPLDDQDAIAVEAVCTNVPALFLDVSDQTPINSIIFSHEDGTRLGVEHLVALGHQQIALLAGPLSPVSARLRLAGWHKYLTRNQIQPIAEREGDWSAMSGFQQTMQMLNEGIVPTAMLVANDQMALGAMRAITESGLRVGADISVVGYDDTEDSSCYIPPLTTIKQDFRLLGQTSVDRLLQLSQGQAVKGNQLLPVSLVKRKTTLAPNTQTASPRALADSLMQLARQVSRLESGQ [E11K A27G K37N H112L A139V S191P] | 2.26 ± 0.028 | 1.4 ± 0.06 | 3.373 ± 0.0099 | 4.426 ± 0.012 |
